The test system of one data set is mu-receptor protein. Nature of the data set: Raman spectroscopy optical readout of ligand binding on mu-receptor-protein-functionalized GFET. Set-up: species or system human. The source says:
Raman spectroscopy of the graphene layer in a functionalized GFET was used as an optical readout method to detect ligand binding. […]
A similar shift is seen in the 2D peak in FIG. 8c. No shifts were seen after exposure to pure buffer as a negative control, in FIGS. 8d and 8e.

Data set [1] in a line: Secondary structure content by circular dichroism. It counts as physicochemical. The source says:
The CD spectra indicated predominantly helical structures with a helical secondary structure content of ˜48% (estimations based on the molar ellipticity over the range 205 to 260 nm). The comparison of the helical content with that of the native human MUR expressed in yeast system in the presence of high concentration of detergent (0.1% SDS) is presented in Table 1.

In a further data set the target is mu receptor protein (Homo sapiens, UniProt P35372). As to the kind of experiment: GFET sensor response (Dirac voltage shift) of mu receptor protein-functionalized graphene transistors. As to conditions: 10 micrograms/mL, negative control of specificity, 15-25 devices.
The test system of data set [2] is human μ opioid receptor expressed in HEK293 cells. Nature of the data set: Competitive TR-FRET (HTRF) binding competition assay with native MUR and naltrexone-derived fluorescent antagonist. As to conditions: methodology described for FIG. 16. An excerpt: FIG. 16. […] Data is used to calculate HTRF ratios, and represent the mean±standard error of mean of quadruplicates. ΔF is used for the comparison of different runs of the same assay which reflects the signal to background of the assay. ΔF=[(Ratiosample−Ratiobackgroud)/Ratiobackgroud](%).
A recently developed methodology which uses a fluorescently labeled ligand and the native MUR was used to investigate the ligand-binding capabilities of the water-soluble receptors.

Data set [3] is described as follows: Thermostability by circular dichroism. As to conditions: 5 mM sodium phosphate; for melting point (CD thermostability): 0.01% SDS, pH=7.0. Here is the method:
The secondary structure of the water-soluble variant was determined through circular dichroism (CD). Circular dichroism (CD) spectra were recorded by using CD Spectrometer (Chirascan, AppliedPhotophysics Limited, Leatherhead, United Kingdom) with a scan speed of 1 nm/s and 1 mm path length. Corresponding blanks were used for calibration for each assay and subtracted from raw data. Two data sets were recorded and averaged to increase the signal-to-noise ratio. The CDNN CD spectra deconvolution software was utilized to determine the secondary structure content of the proteins. […] Absorbance was maintained lower than 1.0 to ensure sufficient light transmission. The temperature-dependence curve was plotted using GraphPad Prism® (version 5, GraphPad Software, Inc. La Jolla).

A short description of data set [4]: Effects of denaturant (urea) and reducing agent (2-ME) by CD and intrinsic tryptophan fluorescence. In kind it is physicochemical. As to conditions: normalized to no denaturant. Here is the method: CD and intrinsic tryptophan fluorescence were used to probe disulfide bond formation in the water-soluble variant. […] Even in 8 M urea, the protein retains some helical structure (Table 2). Upon addition of 2-ME, both the molar ellipticity and fluorescence further decreased, becoming more pronounced at the higher concentration of the reducing agent (200 mM). Thus the presence of an intramolecular disulfide bond is corroborated in the case of wsMUR-TM.

[5] abbreviates: pH 7.0 + 0.1% SDS, expressed in yeast system.

mu receptor protein, sequence (P35372 whole entry, looked up): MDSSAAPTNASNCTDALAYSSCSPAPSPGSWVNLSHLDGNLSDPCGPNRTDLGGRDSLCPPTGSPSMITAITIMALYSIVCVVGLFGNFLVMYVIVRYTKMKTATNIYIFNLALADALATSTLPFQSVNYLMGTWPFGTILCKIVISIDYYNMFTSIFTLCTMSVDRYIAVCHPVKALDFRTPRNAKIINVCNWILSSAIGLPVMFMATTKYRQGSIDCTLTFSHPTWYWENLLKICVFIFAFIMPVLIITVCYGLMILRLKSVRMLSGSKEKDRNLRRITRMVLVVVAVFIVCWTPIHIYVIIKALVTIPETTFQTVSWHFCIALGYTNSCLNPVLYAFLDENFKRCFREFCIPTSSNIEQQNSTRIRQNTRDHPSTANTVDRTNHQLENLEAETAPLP
Description for mu receptor protein: First, the graphene was functionalized through the use of a diazonium salt. The carboxylate group was then activated by EDC and stabilized with NHS. Mu receptor protein displaced the NHS to form an amide bond.
The graphene transistor was functionalized by incubation at 55° C. in a water solution of carboxylated diazonium salt (2.0 mg/mL in DI water). Carboxylic acid groups from the diazonium functionalization were activated and stabilized with 1-ethyl-3-[3-dimethylaminopropyl]carbodiimide hydrochloride/sulfo-Nhydroxysuccinimide (EDC/NHS) at an EDC concentration of 9 mg/15 mL MES buffer and NHS concentration of 20 mg/15 mL MES buffer. NHS molecules were displaced by Mu receptor proteins (3 micrograms/mL) in buffer (40 microM NaPi/260 microM NaCl/0.00004% SDS/10 microM 2-ME/pH 7.0), forming a covalent amide bond between the protein and the graphene. The devices were then electrically characterized and then their sensitivity to opioid exposure was measured.
The source-drain current value is at a minimum at the gate voltage value at which conductance is at a minimum. The increase in Dirac voltage was defined as the sensing response (change in signal, i.e. electronic characteristic) for this ligand. […] The inset is a magnified view of this shift in the Dirac voltage.
Each concentration was tested against 15-30 devices. […]

For `O=C1CC[C@@]2(O)[C@H]3Cc4ccc(O)c5c4[C@@]2(CCN3CC2CC2)[C@H]1O5` [naltrexone], in the data set with mu-receptor protein (10 ng/mL), the “Average 2D peak position after analyte” value was determined as 2683.19 ± 0.20 and the “Average G peak position after analyte” value was 1591.61 ± 0.13. For the same molecule, in the data set on mu-receptor protein (10 micrograms/mL), the “Average 2D peak position after analyte” value was determined as 2685.83 ± 0.26 and the “Average G peak position after analyte” value stood at 1594.39 ± 0.15.

On to “Native MUR: native human μ receptor expressed in yeast system, in 0.1% SDS [reference compound]”, for which, in data set [1] (setting [5]), the “Helix content (CD 205-260 nm)” value was 40.6%, the “Others content (CD 205-260 nm)” value was found to be 40.5% and the “Turn content (CD 205-260 nm)” value came out at 18.9%.

On to `CCOC(=O)c1ncn2c1CN(C)C(=O)c1cc(F)ccc1-2` [Flumazenil], for which the “sensor response (Dirac voltage shift)” value at mu receptor protein is on record as −0.2±0.4 V.

B1: wsMUR-TM+7mut: second wsMUR recombinant protein (protein)
chain: SMITAIKILEEYKKVCEEGRKGNKLVMEVIVRYTKMKTATNIYIFNLAKADALAESTLPFQSVNKLMGTWPFGTILCKKVISIDYYNMFTSIFTLCTMSVDRYIAVCHPVKALDFRTPRNAKEHNEKNWKLSSEIGKPVEKRATTKYRQGSIDCTLTFSHPTWYWEDKLKDTVFKKAFEEPVKVIKECYGLMILRLKSVRMLSGSKEKDRNLRRITRMVLVVVEVFIKCWTEIHKYVKEGKL
Regarding B1, the “binding activity / affinity with naltrexone” value in data set [2] is reported as “binding activity was also observed”.

B2: wsMUR-TM: transmembrane-only water-soluble human mu receptor variant (protein)
chain: SMITAIKIHEEYKKVCEEGKKGNKLVMEVIVRYTKMKTATNIYIFNLAKADALAESTLPFQSVNKLMGTWPFGTILCKKVISIDYYNMFTSIFTLCTMSVDRYIAVCHPVKALDFRTPRNAKEENEKNWKLSSEIGKPVEKKATTKYRQGSIDCTLTFSHPTWYWEDKLKDEVFKKAFEEPVKKIKECYGLMILRLKSVRMLSGSKEKDRNLRRITRMVLVVVEVFIKCWTEIHKYVKEGKLVTIPETTFQTVSWHECIAKGYKNSCENPKLYEELDENFKRCFREFC
For the molecule B2, in data set [1] (pH 7.0 in NaHPO4), the “Helix content (CD 205-260 nm)” value came out at 48.0%. For the same molecule, in data set [1] (pH 7.0 in NaHPO4), the “Others content (CD 205-260 nm)” value stood at 37.4%. The “Turn content (CD 205-260 nm)” value in data set [1] (pH 7.0 in NaHPO4) is given as 14.6%. Also, the “temperature at which ellipticity (222 nm) starts to be lost significantly” value in data set [3] (pH=7.0, 10 to 90° C.) was around 62 °C. Also, the “melting point (CD thermostability)” value in data set [3] (absence of cholesterol) turned out to be 82.9 °C; in data set [3] (presence of cholesterol), 89.3 °C. Also, the “Fluorescence Peak Intensity (%; 300-350 nm)” value is given as 23.9% in data set [4] (Urea (8M) 2-ME (25 mM)), 4.5% in data set [4] (Urea (8M) 2-ME (200 mM)) and 28.4% in data set [4] (Urea (8M)). The “Molar Ellipticity (%; 222 nm)” value amounted to 25.1% in data set [4] (Urea (8M) 2-ME (25 mM)), 0.0% in data set [4] (Urea (8M) 2-ME (200 mM)) and 40.0% in data set [4] (Urea (8M)).

Values taken from patent publication US10809222B2, “Opioid detection based on high quality graphene transistor arrays and a synthetic mu receptor” (priority 2013, dated 2020).
